The results in this text go back to the DeepSol protein solubility set.

The data set is described as follows: soluble on expression in E. coli; label from the status in PepcDB or PDB records.
With “MSLTPPRSLLHALKPFLEAGADKEALVFGAHRISFGDMAGHAAALAEVLRSKGVQKGDRVAALFPPRPEAILSLLACWLIGATWMGINPRYQRREQAQILADAGVKVLMSMTRIGKRDLEDDLASHETDLGFSVLRFAPAFAPAALPEKLPYDEVLRRWREATETLEPDSPSVVIYTSGSTGKPKGALITHAGLAFRSHTLHIDRFNLPAPTQLIDLPVNHIGALASGIGVAMASGGKMILSEQFDPGVTLRTAFAEKLAIISGVPAMLARLVEHPDFATSDLSSVKAISWGAGPINEAVLRKLLNATDALFSQQYGMTESNGPIVFTPPTRDVEVLLNTTGKPDPRLELRIADESGQPLPDGEEGEVQIRHPHPFAGYLGNAEASAAAFTADGFLHTGDLAMVREDGYLVFCGRSKEMYKSGGFNVYPREIEIALEAHPAIRAAAVLGVDDEQWGQVGHAFVELASPLTSDDITGWCKARLADFKVPKRVSVIDAMPRTPVDKVDRMQLAELAARGEGHHHHHH”, the “soluble on expression in E. coli” value is listed as “soluble”.
Consider “MIPGMRATPTESFSFVYSCDLQTNVQVKVAEFEGIFRDVLNPVRRLNQLFAEITVYCNNQQIGYPVCTSFHTPPDSSQLARQKLIQKWNEWLTLPIRYSDLSRDAFLHITIWEHEDDEIVNNSTFSRRLVAQSKLSMFSKRGILKSGVIDVQMNVSTTPDPFVKQPETWKYSDAWGDEIDLLFKQVTRQSRGLVEDVPWLDPFASRRIEMIRAKYKYSSPDRHVFLVLEMAAIRLGPTFYKVVYYEDETKNMRVSTSVNGGVGIVSACTRYCVADPELLLESLAEVKHSAMTRRIRDVEDERHRQVKPNKQAKDRLETIVNLPSSQVLTREQRDLVWKFRHYLRQFPKALNKYLRSVNWVHPQEVKTALALMNDWELIEAEDALELLSSAFTHPAVRAYSVSRLLEAASPEQVLLYLPQLVQALKYEQGQQLPEEGNPVPVVSEEEGKIPSVATTPTEELEGRDMTVVTKKEARKAASGDLATFLIDYALASPKVSNYLYWHLKTEIESTKESKEEHSKMYQNIQDRLMEALVKRPDTRAQVDSLHQQQIFVEDLIILMNEAKARGGRLNESKSAEFRTMLSRAKHMLDLKGVHLPLDPSFRLSSVIPDTASFFKSEMMPAKISFKVLQPNGKADRNIPEEYTVIFKTGDDLRQDQLIQQMVRLIDIILKKGQLDLKLTPYLVLSTGVGQGFVQCIKSKPLRAIQEQYKAHKMDCIREAMKELRPGDGPFGIEPNVIDNYVRSLAGYSVIMYILGLGDRHLDNLLLCENGKLFHVDFGFILGRDPKPMPPPMKLTSEMVQVMGGVKSKQFLEFVQHVDSAYRILRRHSNVLLNLFSLMLDAGIPDIAAEPDKAIFKIEQRLRLDLSDEAATKHIFTQIESSLNAKMAMISDIIHAYKQNLM”, for which the “soluble on expression in E. coli” value is “not soluble”.
Then “MSLSRFYHNLKFRSIPTTCATAQMCADRDEMQDSLICIPHFAAPEHYLFAGIDGHSGKYVSYKFSIRFPEIFYEMLSRDSGALNIIDALYQSFDTIQNEFANDPNVTDGAVATVIFMTPTKIYTAQCGDCRAVYITSSGVVQLAPEHKTSDRIEQMRIRSQGGFVSENLRVCGLLVARSVGDVKNKPIITHVPDITCFDRRDDEEYLVVATDGVWDEISNLKIHDILHSNRRVYRTSELSGLVKDIACVSCISGQHPDNIGIVLCRFEGHHHHHH”, with “soluble”; and “MGSDKIHHHHHHMSFSNEMKVFSGNANRPLAEKIANYLNLQLGDCEVGRFADGEINVRINETVRGHDIFLIQPTSPPVNENLMELLIMIDAFKRASANTIAVVIPYYGYARQDRKAKGRDPISAKLVANLITVAGATRVLTVDLHAEQIQGFFDIPVDNLWSYPVFAEELLKRENIVPEETVVVSPDVGGVRRARRMAERLGTSLAILDKRRPSDNVAEVVNIIGEVEDKVVIMFDDIIDTAHSIVKGAEALKNAGAKRIIACATHGVFSDRALERIENSSIDTVYITDTIYHENLPEKVKVISVANLIGEAIMRIRKHLSVSTLFR”, with “not soluble”; and “MSLTILAIDTSNYTLGIALLREDTVIAEYITYLKKNHSVRAMPAVHSLLNDCDMAPQDLSKIVVAKGPGSYTGVRIGVTLAKTLAWSLDIPISAVSSLETLAANGRHFDGLISPIFDARRGQVYTGLYQYKNGLLEQVVPDQNVMLADWLEMLKEKDRPVLFLGHDTSLHKQMIEDVLGTKGFIGTAAQHNPRPSELAFLGKEKEAADVHGLVPDYLRLAEAEAKWIESQKEGHHHHHH”, with “soluble”.
For the sequence “PFEGNRVDIYTGGYSKLQALLRELQKARLHIHMEYYIFEDDPVGRLVRDVLIEKAREGVEVRVIYDDVGCWHVPHRFFEEMRDAGIEVRSFLKVRFPLFTSKVNYRNHRKIVVIDGRIGFIGGMNLAERYMRGFSWGIWRDTHILLEGKAVHGLQTAFLLDWYFVDRTLITASRYFPKIEAYGNSLVQIVTSEP”, the “soluble on expression in E. coli” value is reported as “not soluble”.
With “AIPLTLFYKFTYPIIVAFNKSTDLVLKLFGIKQVDEHEEAHTDEEIRMLVEESYKHGLIDKTELTFVDNVFDFSEKTVKEIMVPRTDMKCIFVEDSFDDIVGVTIDEHFTRYPVCEESKDNIIGLIHIKDLYKLKINKEDEKIESIIREIKFVPESMSISELFRMFQKERMQMAIVIDEYGGTFGLVTIEDILEEIVGEIQ” the entry was “not soluble”.
Take “MIVPKGNENIRPGYAMEPKYITIHETANTSKGANALNHAKYLDNQARGNTDRSASWHFTVDDKEIYQHLPLNEVGWHAGNKTGNYESIGIEIAVNSDGNYTKAVENAKKLAAYLMNELNISLDHVQKHQFWSGKNCPAFMIQRGQWDAFLKGTNAYYNEHHKDVIPPPEVPHEKDDITGGWYEQDIRQLAARKIMFGDGNGSYWPNRLVTRAEFANLMSRALNLPAGNAKFTDLNEAHPSLVDGINRAASAGIINGRGNNKFDPNATITRDEAVIMIDRALEYNWIYRKEVKLPFTDQHLAYDKKALQNVYAYGIVKGNERNEFVPKGTATRAESAAFLNRMLKVIEA”: the “soluble on expression in E. coli” value is “not soluble”.
With “MNDSSVIYRAIVTSKFRTEKMLNFYNSIGSGPDKNTIFITFGRSEPWSSNENEVGFAPPYPTDSVLGVTDMWTHMMGTVKVLPSMLDAVIPRRDWGDTRYPDPYTFRINDIVVCNSAPYNATESGAGWLVYRCLDVPDTGMCSIASLTDKDECLKLGGKWTPSARSMTPPEGRGDAEGTIEPGDGYVWEYLFEIPPDVSINRCTNEYIVVPWPEELKEDPTRWGYEDNLTWQQDDFGLIYRVKANTIRFKAYLDSVYFPEAALPGNKGFRQISIITNPLEAKAHPNDPNVKAEKDYYDPEDLMRHSGEMIYMENRPPIIMAMDQTEEINILFTF” the entry was “soluble”.
Then “MEAVWGILPKTVAAALQHHLPSCRRGIEEIRIRVSRPLEVIVDGTARLLPYEVTKEDGVHLLNKLSHYSIYAVEEELKRGFMTIEGGHRVGLAGKVITEGGKVKAIRDVSSFNIRIAKEQIGISEPLIPYVYDGRWRHTMIIGSPQTGKTTLLRDAARLISSGTGRIPAQKVAIVDERSEIAGCVKGIPQFSFGPRLDVLDACPKAEGMMMMIRSMSPDVMIVDEIGREEDSEAVLEAANAGVSVWTTVHGRNIQDVWQRPTLGPVMEQKVFERFIELTNIPHPGSIRRILDAGGTVLYERAVVHR”, with “not soluble”.
For “GHMAKTDRSQPSVLARIAAFRTGLSAEASAADYLERQGYRILARRFKTRCGEIDLVAQRDALVAFVEVKARGNVDDAAYAVTPRQQSRIVAAAEAWLSRHPEHAMSELRFDAILIAPNTAPRHLPGAFDATPGS”, the “soluble on expression in E. coli” value is reported as “soluble”.
With “MSLNKNIKSLNLREKDPFLSREKQRYEHPLPSREWIIELLERKGVPSKIESLARELSITEDEYVFFERRLKAMARDGQVLINRRGAVCAADKLDLVKCRVEAHKDGFGFAVPLTPAKDGDFVLYERQMRGIMHGDIVTVRPAGMDRRGRREGTVLDIVERAQSKVVGRFYMDRGVAILEPEDKRLNQSIVLEPDGVARFKPESGQVIVGEIEVYPEQNRPAVAKIIEVLGDYADSGMEIEIAVRKHHLPHQFSEACAKAAKKIPVHVRKSDLKGRVDLRDLPLVTIDGETARDFDDAVFAEKVGRNYRLVVAIADVSHYVRPDDVIDADAQERSTSVYFPRRVIPMLPENLSNGICSLNPDVERLCMVCDMVVTYAGNIKEYRFYPAVMRSHARLTYNQVWKWISDGIDHPYKAQIDTLYKLFKILQKKRFERGAVEFESVETQMIFDDNGKIEKIVPVVRNDAHKLIEECMLAANVCAADFLLKNKHTALFRNHLGPTPEKLATLREQLGLLGLQLGGGDNPSPKDYAALVEQFKGRPDAELLQVMMLRSMQQAVYEPHCDGHFGLAYEAYAHFTSPIRRYPDLTVHRAIKAVLNQQTYTPKKSWQALGVHTSFCERRADDASRDVENWLKTYYMRDKVGEVFEGKISGMTSFGIFVTLDGIHIDGLVHISDLGEDYFNFRPEIMAIEGERSGIRFNMGDRVAVRVARADLDDGKIDFVLIAGGSGRGRKVKSSASAKPAGTAGKGKPKTAAEKKTARGGKVRGRGASAAAESRKKAKKPVPIKVKKRKGKSEGHHHHHH” the entry was “not soluble”; with “MDRIPFGIRQLDSIINGGAPAGSVVLLSGEAGAGSREFMHTSALINGLEQVDTELHDLYYGDRSPDAVAPDEVHYISFTTNESQLVSEMRLAMDDDVVDKGSRAVEFHDLSERYFHISPVPREWYASETASITDLRARHEREDLLGTLGMVLNEVAANNLVVIDSLSDLVSAMGEEIEWSDISSLVQGLQKAAHQWGCLLLLHINPETLSTVRHGQLVDASHGTMEFAWESGGSTRARTLVVQQFRGVLSQIEDEDIVQFETELGDAGFDISDVRKIRLEHHHHHH”, “not soluble”.
With “SDHFNAPVGMLEAITSVEGVDRVVPTIEMTGVAKTDSAFAGILLMGDNSLRTRNPLFGQTVSGNYPSFSSADTVPNPILLPQVTADKLHLKIGDKLRIYFAGTERMRLRAFTVAGVYSGGKMDMPVGLVSADVLRRVGGLGADDVSRLLIYASDPDETDLIVTRVFDRLSETLYVGEQRLTINTATELNPMIMDWLSALDTN” the entry was “not soluble”; with “GSMDCEVNNGSSLRDECITNLLVFGFLQSCSDNSFRRELDALGHELPVLAPQWEGYDELQTDGNRSSHSRLGRIEADSESQEDIIRNIARHLAQVGDSMDRSIPPGLVNGLALQLRNTSRSEEDRNRDLATALEQLLQAYPRDMEKEKTMLVLALLLAKKVASHTPSLLRDVFHTTVNFINQNLRTYVRSLARNGMD”, “soluble”.
With “MAEARSQPSAGPQLNALPDHSPLLQPGLAALRRRAREAGVPLAPLPLTDSFLLRFLRARDFDLDLAWRLLKNYYKWRAECPEISADLHPRSIIGLLKAGYHGVLRSRDPTGSKVLIYRIAHWDPKVFTAYDVFRVSLITSELIVQEVETQRNGIKAIFDLEGWQFSHAFQITPSVAKKIAAVLTDSFPLKVRGIHLINEPVIFHAVFSMIKPFLTEKIKERIHMHGNNYKQSLLQHFPDILPLEYGGEEFSMEDICQEWTNFIMKSEDYLSSISESIQ” the entry was “soluble”; with “MAEGDLSFFVMLARRESFSATAQDLGLSASAVSRRLARLEDRLGVRLLNRTTRKVSLTSEGEAYYGAALRLLDEIADLEHNLSQGRDRPAGLLRINATLGFGRTHLAPAIARFRRIHPAVEVQLLLTDAPLNLVEEGIDLGIRFGAPPFGRMVMRLLQRNRRFLCAAPSYLEARGVPQSLTDLQQHSCIVLRQDHDAYDVWRFDDIGEASPSAKVSGELSTNDGEIALAWVLDGQGIMLRSEWDIAQHVREGRLRLLLPHYRQTANIHAIYPERHNLSAKVRVFADHLAAHVRDADARMPLQLAAAELRAATARA”, “not soluble”.
As for “MSLSNTSASFGFKDVDASLKAGLVRGVFDRVAKNYDIMNDLMSGGVHRLWKDAVAARLNPQPGEVIIDCAGGTGDMARRFAKMARKAQERRGGPDATINIVDYNAEMIMAGIERGGEPEITWTVGDAQRLPLPDAYADAYVISFGIRNVTDINAALREARRVLKPGGRFLCLEFSRPVTEPLAKAYDAYSFKVIPQVGEWVAKDRDAYQYLVESIRRFPDQRTFAGMIEAAGFKRVTFTNFTGGVAALHQGWAIEGHHHHHH”, the “soluble on expression in E. coli” value was “not soluble”.
